B1: CPEB3 Ribozyme (parent)
chain: GGGGGCCACAGCAGAAGCGUUCACGUCGCGGCCCCUGUCAGAUUCUGGUGAAUCUGCGAAUUCUGCUGU

This series covers variants of B1. Nature of the series: self-cleavage, relative activity (ratio to wild type); higher = more cleavage; co-transcriptional.
For the variant G2U U36C, the self-cleavage stood at 0.0828.
As for G2U U36A, the self-cleavage was determined as 0.023.
With G2U A42C the figure was 0.0887.
Turning to G2U A42U, the self-cleavage was found to be 0.0798.
For G2U A42G, the self-cleavage was determined as 0.0791.
Take G2C G11U: the self-cleavage is 0.0219.
G2C G11C: the self-cleavage was found to be 0.0455.
In the case of G2C G11A, the self-cleavage came out at 0.0352.
On to G2C A42G, for which the self-cleavage is 0.0702.
Next, G2C G50C: 0.0266; G2C G50U: 0.0262; G3A A13U: 0.339.
On to G3A A13G, for which the self-cleavage stood at 0.596.
As for G2U C33G, the self-cleavage is 0.066.
As for G2U C33A, the self-cleavage turned out to be 0.0922.
As for G2U C33U, the self-cleavage was 0.117.
For G2U C7A, the self-cleavage was 0.0706.
For G2U C7U, the self-cleavage turned out to be 0.0578.
With G2U C7G the figure was 0.0573; with G2U U20G, 0.0171; with G2U U20C, 0.0329.
Next, G2U U62G: 0.0547.
With G3A C45U the figure was 0.634.
On to G2C G58U, for which the self-cleavage amounted to 0.0467.
Consider G2C G58C, for which the self-cleavage turned out to be 0.0216.
As to G2C G17C, the self-cleavage amounted to 0.0475.
For the variant G2C G17A, the self-cleavage was 0.0551.
Regarding G2U G37A, the self-cleavage turned out to be 0.0373.
Next, G2U G37U: 0.0465.
Next, G2C U62A: 0.0592.
G2C U62G: the self-cleavage is 0.0405.
For the variant G2U A23U, the self-cleavage is 0.133.
Next, G2U A23C: 0.0692; G2U C18G: 0.00659.
Turning to G2C C34A, the self-cleavage was 0.0678.
Turning to G2C C34U, the self-cleavage is 0.0646.
Turning to G3A C9A, the self-cleavage stood at 0.895.
Next, G3A C9G: 0.858; G2C U20A: 0.0496.
On to G2C U20C, for which the self-cleavage is 0.0285.
In the case of G2U C29A, the self-cleavage came out at 0.0519.
On to G2U C29G, for which the self-cleavage turned out to be 0.0442.
As to G2C G3A, the self-cleavage stood at 0.055.
Consider G2C G3C, for which the self-cleavage came to 0.0247.
For the variant G2U C9G, the self-cleavage amounted to 0.129.
Consider G2U C9A, for which the self-cleavage was 0.149.
For G2U G5U, the self-cleavage came to 0.0421.
In the case of G2U G14C, the self-cleavage came out at 0.0522.
With G2U G14U the figure was 0.0888.
Regarding G2U G50C, the self-cleavage was determined as 0.0712.
With G2U G50U, the self-cleavage was determined as 0.0728.
Turning to G2U A10C, the self-cleavage turned out to be 0.0945.
With G2C U69A the figure was 0.111.
With G2C U69C, the self-cleavage was found to be 0.147.
Next, G2C C35G: 0.313; G2C C35A: 0.0223.
As for G2U U53C, the self-cleavage stood at 0.0669.
G2U U53A: the self-cleavage was determined as 0.0959.
Next, G2U U53G: 0.0896; G2U C35A: 0.256; G2U U67A: 0.127.
Turning to G2U U67C, the self-cleavage came to 0.107.
In the case of G2U U67G, the self-cleavage was 0.116.
Consider G2C G65C, for which the self-cleavage amounted to 0.0537.
G2C C12G: the self-cleavage stood at 0.0599.
For the variant G2C C12U, the self-cleavage is 0.065.
With G2C G30U the figure was 0.0301; with G2C G30A, 0.0388.
As to G2U G19U, the self-cleavage came out at 0.0651.
With G2U G19C, the self-cleavage amounted to 0.0206.
As for G2U G19A, the self-cleavage was determined as 0.0693.
As for G2C U26G, the self-cleavage turned out to be 0.0511.
For the variant G2C U26A, the self-cleavage is 0.0328.
In the case of G2C U26C, the self-cleavage was 0.0734.
For G3A A51C, the self-cleavage is 0.413.
Next, G3A A51U: 0.651.
With G2C U67G the figure was 0.0872.
On to G2C U67C, for which the self-cleavage is 0.106.
In the case of G2C U67A, the self-cleavage amounted to 0.0227.
Regarding G2U G11U, the self-cleavage amounted to 0.0835.
For G2U G11A, the self-cleavage stood at 0.049.
In the case of G3A C39A, the self-cleavage was 0.328.
Take G3A C39U: the self-cleavage stood at 0.273.
For G2C G19C, the self-cleavage stood at 0.0249.
With G2C G19U, the self-cleavage came out at 0.0175.
Take G2C C66U: the self-cleavage was found to be 0.0685.
With G2C C66A, the self-cleavage worked out at 0.052.
Turning to G3A A60U, the self-cleavage was determined as 0.123.
Take G2C C18A: the self-cleavage was found to be 0.0265.
Regarding G2C C18U, the self-cleavage was found to be 0.0354.
In the case of G2U U61C, the self-cleavage came to 0.0727.
As for G2C A15U, the self-cleavage amounted to 0.0423.
With G2C A15G the figure was 0.0305.
As to G2C A15C, the self-cleavage was 0.0125.
With G2C A23C the figure was 0.0568.
Take G2C U64C: the self-cleavage was 0.0536.
In the case of G2C U64G, the self-cleavage amounted to 0.137.
Consider G2C U64A, for which the self-cleavage stood at 0.0485.
For the variant G2C C57G, the self-cleavage was found to be 0.0289.
For G2C C57A, the self-cleavage was 0.036.
Regarding G2C C57U, the self-cleavage is 0.054.
Turning to G2C C7U, the self-cleavage is 0.0258.
As for G2C C7A, the self-cleavage is 0.0323.
With G2U C57A the figure was 0.0471.
As to G2U C57G, the self-cleavage was 0.0241.
For the variant G2U A59U, the self-cleavage stood at 0.0606.
With G2U A59C the figure was 0.05.
Turning to G2U A40C, the self-cleavage came to 0.087.
As to G2U A40U, the self-cleavage was found to be 0.0492.
As for G2C A51G, the self-cleavage worked out at 0.0786.
Consider G2C A51C, for which the self-cleavage came out at 0.0374.
With G2C C32A, the self-cleavage turned out to be 0.00762.
Take G2C C32U: the self-cleavage is 0.0415.
For G2C C32G, the self-cleavage is 0.0507.
Turning to G3A A16U, the self-cleavage is 0.185.
With G3A A16C the figure was 0.0704.
Take G3A C22A: the self-cleavage worked out at 0.0741.
For the variant G3A C22G, the self-cleavage was 0.0453.
With G2U G65U the figure was 0.0743.
G2U G65C: the self-cleavage was 0.0564.
In the case of G3A, the self-cleavage was found to be 0.693.
As to G2C A60U, the self-cleavage turned out to be 0.0243.
Take G2C A60C: the self-cleavage is 0.0369.
As for G2C A60G, the self-cleavage came to 0.0533.
As for G2C U49G, the self-cleavage was 0.0393.
For the variant G2C U49C, the self-cleavage stood at 0.0424.
For G2C U49A, the self-cleavage came out at 0.0745.
G3A A42G: the self-cleavage worked out at 0.584.
In the case of G3A A42C, the self-cleavage turned out to be 0.338.
Turning to G3A A42U, the self-cleavage amounted to 0.394.
With G3A A59G, the self-cleavage was 0.362.
With G3A A59U the figure was 0.198; with G2C U55C, 0.0587; with G2C U55G, 0.0548.
For the variant G2C G25C, the self-cleavage turned out to be 0.0473.
For the variant G2C G25U, the self-cleavage was found to be 0.0456.
Next, G2U G30U: 0.0322.
As to G2C U43A, the self-cleavage was 0.0772.
With G2C U43C, the self-cleavage stood at 0.0672.
G2U G25U: the self-cleavage was determined as 0.0175.
For G2U G25C, the self-cleavage turned out to be 0.0157.
Take G2U G25A: the self-cleavage stood at 0.0393.
On to G2U G47C, for which the self-cleavage amounted to 0.0826.
On to G2U G47U, for which the self-cleavage amounted to 0.059.
In the case of G2U U26G, the self-cleavage came to 0.0848.
Consider G3A A10U, for which the self-cleavage was found to be 0.889.
Next, G3A A10C: 0.876; G3A A10G: 0.679; G2C G5A: 0.0455.
On to G2U C45G, for which the self-cleavage came out at 0.0316.
For G2U C45U, the self-cleavage was determined as 0.102.
In the case of G2U C45A, the self-cleavage was 0.0935.
For the variant G3A C32G, the self-cleavage came out at 0.176.
As to G3A C32U, the self-cleavage was determined as 0.302.
As to G3A C32A, the self-cleavage came to 0.191.
Regarding G2U G17A, the self-cleavage is 0.0534.
For the variant G2U C66G, the self-cleavage was 0.0712.
As for G2C C24G, the self-cleavage amounted to 0.0232.
Consider G2C C24A, for which the self-cleavage stood at 0.0707.
With G2C A13G, the self-cleavage amounted to 0.084.
Next, G2C A13U: 0.0221; G2U C34G: 0.0441.
G2U C34A: the self-cleavage amounted to 0.0756.
With G2U G58U, the self-cleavage stood at 0.0822.
Turning to G2U G58A, the self-cleavage was 0.0612.
Take G2U G58C: the self-cleavage is 0.0697.
With G2C C45G, the self-cleavage was found to be 0.0374.

For the origin of these results see the RNAGym collection of RNA variant scans (doi:10.7554/elife.80360).
